Test results taken from patent US20100055121A1 (US Dept. of Health and Human Services, published 2010).

Tests used:
[1] = target: T1, HLA-A0201 molecules on T2 (HLA-A2+) cells (human); assay: T2 cells loaded with 25 µM peptide, brefeldin A chase, HLA-A02 flow cytometry over time
T1 construct: whole, on cells; MHC class I molecule on T2 cells; also called HLA-A2.1
Protocol: (§1) HLA-A2 binding assay. […] T2 cells (1×10⁶) in serum-free Iscove's modified Dulbecco's medium were incubated in the presence of various concentrations of each peptide, in 24-well culture plates at 37° C. with 5% CO₂. After 18 hours in culture, T2 cells were harvested, washed with 1× phosphate buffered saline (PBS) (Invitrogen) and stained with 20 μl of a FITC-conjugated anti-HLA-A02-specific monoclonal antibody (MAb) (One Lambda, Inc., Canoga Park, Calif.). A FITC-conjugated IgG2a MAb (BD Biosciences, San Jose, Calif.) was used as an isotype control. Data acquisition and analysis were conducted on a FACSCalibur™ system using the CELLQueSt™ software (BD Biosciences). Results were expressed as mean fluorescence intensity (MFI) collected on a log scale. […] Assuming first order kinetics, the log₂ of MFI/MFI₀ (MFI is the fluorescence at each time point and MFI₀ the initial fluorescence at time 0) was plotted against time (minutes). The decay rate constant was calculated as the slope of the linear regression for each curve and the half-life of each peptide-MHC complex was calculated as […].
In silico-predicted epitopes were then assessed for binding to the MHC molecules in a cell-based assay. TAP-deficient T2 (HLA-A2+) cells were incubated in the presence of 25 μM of each peptide and subsequently tested for cell surface MHC-stabilization by bound peptides.

[2] = target: T1, HLA-A0201 molecules on T2 (HLA-A2+) …; assay: T2 cell surface HLA-A02 stabilisation, flow cytometry, 25 µM peptide
Protocol: as §1
In silico-predicted epitopes were then assessed for binding to the MHC molecules in a cell-based assay. […]

half-life of MHC-peptide complex [1] [min] | binding result [2] | Binder
312 |  | AMYSFLLDFV (Synthesized at >90% purity) [Brachyury peptide T-p4]
514 |  | WLLPGTSTL (Synthesized at >90% purity) [Brachyury peptide T-p2]
 | binds | SQYPSLWSV [Brachyury peptide T-p1]
225 |  | RLIASWTPV (Synthesized at >90% purity) [Brachyury peptide T-p3]
